Measurements published in the supplement of paper PMC9170038.

system: K4 kissing-loop RNA reporter; assay: apparent KD of K4 kissing-loop reporter; higher = weaker reporter binding; conditions: Eterna round: R107; input ligand: FMN 200 uM
Description: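 RNA-MaP round R107: designed RNA switches with theophylline, tryptophan, arginine or FMN aptamers are transcribed on-chip within common flanks. They are titrated with a labelled K4 kissing-loop RNA reporter in RNA-MaP buffer (100 mM Tris pH 7.5, 80 mM KCl, 4 mM MgCl2), without ligand or with the indicated ligand. Median apparent KD per design.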
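Also: bound reporter read as fluorescence of individual clusters on recovered sequencing chips by microscopy, with normalized cluster intensities fitted with a binding model.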

| Sequence | apparent KD of K4 kissing-loop reporter [nM] |
| --- | --- |
| UGGCGGACGAUCCGGAGUGAUGUUCCGGAUACCAGCAGAAGAGCCUGCCCUUGGCAGCCGUACGACGCUGGGAGAGUCCGGCGUC [Soteina] | 83.8 |
| UGACAUUGCUCAGAUACCAGACAUGAGCAUCAGCCAUGUACCAAGAAAGUACAAUAAAAUGUCCCUUGGCAGCUGAGCAAUGUCU [TheoBX 8] | 56.1 |
| AAUUUUAAUCAUAAAUAAUAAAUAAAUGAUACCAGUAUUUUUUUUUACCCUUGGCAGCGUAUAUAAGGGCAGUGAUGUUGUCAGA [whbob_SS_Theo_A_w60] | 236 |
| UGAUACCAGACUGAUACCAGCCAGUGAUGUUGGCUAAGCCAAAUAGGUGUCAAAGACACCGGCCCUUGGCAGCAGUCUGGUAUCU [TheoBX 2 #SwitchBubble #StaticStem] | 133 |
| GGAGUUACCUGGGAUACCAGUCGGAGACCCAGAGCUCGGAGUGAUGUUCUGGGAUGUUUCGGCCCUUGGCAGCUCUGGGUCUCCC [#2 Exclusion - Theophylline B Attempt #8 (HarryS)] | 909 |
| GAAUGAUAGUAAGGAUAUAGAUAAUCCUUAUAUAUAUCGAGUGAUGUUCGAUGUGGCAAGAUACAUCUAGAAGGUACUGUAAGGU [Same State FMN B GF 16] | 309 |
| CUCCUUGGCUAAGGAUAUCGUAGUGAUGUUAUGGUCUUUGCUAAGACUUCUGAUAUUGAAUUCCGACGAGAAGGUAGAAGGACGG [theeternabot_exclusion_KL_FMN_B_18] | 817 |
| UCUGUUGUAUAUGAUACCAGCAGUGAGAGAUGAGAAGUAUAGUGAUGUUAUAUGAGAGAAUGCCCUUGGCAGCGUGUGCGUGUGG [SSTheophylB.aC] | 105 |
| CGCCGUAAGGCGAGCGCUCCCACUCCGGAAGGAGCGCCCGAAAGGGCAGGUAGGUCGCCGGAGUGAUGUUCCGGUGGAGGGCUCG [#2 Exclusion - Arginine A Attempt #28 (Inspired by Omei)] | 353 |
| UCACUCAUGUGAAGGAGCGUGAGAAGACAUGAGUGAUGUUCAUGUCUAGACCAGCGUCUCUCACAGGUAGGUCGCACAUGAAAGG [Arg B SS t10] | 128 |
| AAAAUUGCGGUCGAUAGAACUUUUUGCUUACGAGGACCGGUACGGCCGCCACUCGAGUCAAGUGAUGUUUGAUUUUCUAUUAUUA [JR_ExcTryptoA_Sub014] | 112 |
| UUUAACGAGUGAUGUUCGAAAAGUAAUGGUGAGGAUAUCGAUUUUUCGAGAAGGCACCUCGAAGUGAUACGAAAGUAUCGCUUCG [FMN A 4] | 173 |
| CCUUUCUGUUACGAUACCAGUCUAAUAUAUUUGAUCAAUACCCUCGCCGAGUGAUGUUCGGACCCUUGGCAGCGUCUGGGACAGG [aazwmullin] | 482 |
| GGAGGAGAAUAUGAUACCAGCAGAGAGAGAGAGGAAGUAUAGUGAUGUUAUAUGUGAGAAUGCCCUUGGCAGCAUAAGAAGAAGG [whbob_SS_Theo_B_sa87] | 140 |
| CAUAGACAAGUGAUGUUUGUCAUAACCGAAGGAGCGUCUUUAAAGACAGGUAGGUCGCGGAUUAAUUAAGUUAUUAUUCUUUUUA [JR_SSArginiA_Sub018] | 552 |
| UAGUCAUACAGAGGAUAUCGUAUGAGUGAUGUUCAUACGACAUAAUCAAAUUGUAUUGAUGUUCGACGAGAAGGCUGUAUGACUA [FMN B Ex t1] | 221 |
| GUGUAACGAGGAAACCUCGUUACACCCUCACGAGGACCGGUACGGCCGCCACUCGAGAGCUCGUGAGGAGUGAUGUUCCUCGUGA | 695 |
| GGGAGUAGUGCGGCCGCCACUGAGAAAGAAGAAGAAUAUAGUGAUGUUAUAUAGGAAAGGAAGAAUAGGACCGGGCAUUAGAUUU [SSTRyptB.J] | 229 |
| CCGGCCCAGCCGGAUACCAGUGCGCCGCAGGGAACGGCGGGCCCAGAGUGAUGUUCGGGACACCCUUGGCAGCCGCCUGGGUCCU [#2 Same State - Theophylline B Attempt #29 (HarryS)] | 850 |
| GCUAUGGUUGGAAGGAGCGUUGAAUUGUUGGUAAGAGUGAUGUUCGAUAGUGGAUAGUUGUAGCAGGUAGGUCGCCAACUAUAGC [KL-Arg B27] | 377 |
| ACAGUCGGCUGUGAUACCAGUCGUAUUACAACAUGUUGCAGUGAUGUUGCGAGAUAGGAUGACCCUUGGCAGCACUCAGUACGAU [Same State Theophylline B GF9] | 310 |

| Sequence | apparent KD of K4 kissing-loop reporter [nM] |
| --- | --- |
| UGAUACCAGACGGCCGCCACUACACCAGUCAAAGACUGGAUGUGAAAUUCGACCAGUGAUGUUGGUAGGACCGGGUCUGGUAUCU [TrypBX 8 #SwitchBubble #StaticStem] | 383 |
| AUUUAGACGAGUGAUGUUCGUGAUUUUUCAGAGGAUAUGCGUAAUAGCAGAAGGCUGUAUUUAUAUAUAUUUUGAUUUUUUUAAA [JR_ExcFMNA_Sub009] | 69.6 |
| CUGUCAUGGGAUGGGCCAGUGAUGUUGGGCCGAGGACCGGUACGGCCGCCACUCGUAGCACAGUGCGCGCUAGCAUUGUACGUCA [theeternabot_exclusion_KL_Trp_A_35] | 1260 |
| AAUAAAAGAUGUUUAGGAAAGAAAAUGGAAGGAGCGUGCGAAAGCACAGGUAGGUCGCCAGUGAUGUUGGAACCUGAGCAUCAAA [#SwitchBubble 15 #K4Late] | 827 |
| GUCGGCCGCGCGCAAGCGCGGCCGGCCGAUACCAGCGCGCCGGCGCGCCCUUGGCAGCGGCGCCGAGUGAUGUUCGGCCUGACGU [#2 Same State - Theophylline A Attempt #7 (HarryS)] | 710 |
| AACACUCAGAGAGUGAUGUUCUCUAAUAAACGAGGACCGGUACGGCCGCCACUCGAAUAAGAGUGAGUCCUACGAAAAGUAGGAC [Omei inspired 5 #OpenEnded] | 790 |
| UCCUUUGUUGCCAGUGAUGUUGGACAGGAAGGAGCGGGCAUAAGCCCAGGUAGGUCGCCUGUCAACUUUCUUAUAGCCCGAAGGU [KL-XArg-A19] | 441 |
| UGUAUGUGAUUUGAUACCAGACCAGCUGGUGUUUCAAGAGUGAUGUUCUUGUAGGUUUGGGUCCCUUGGCAGCAAAUCGCAUACU [KL-SSTheoB15] | 159 |
| CUGACGAUGACACGGUGGCCGCUGGUCGUGCGAGGACCGGUACGGCCGCCACUCGCAUGAGUGAUGUUCAUGUGUCGUCGUCGUC [#08 K4 Tryptophan A Exclusion] | 133 |
| UACUUAUAUUUCAACUUAAAUUAUUCAGAAGGAGCGUGAUCAUUCACAGGUAGGUCGCUGAACUAGUGAUGUUAGUUUUAAUUUU [JR_Nu_ExcArginiA_Sub022] | 66.3 |
| UGGACCUGACUCGAUAAGAGUCAAGGAGAUACCAGCCACGAAAGUGGCCCUUGGCAGCUCUGCCAGUGAUGUUGGUCAAGGUCCU [#SwitchBubble 7 #StaticStem] | 976 |
| CAUACGCAUGGAGGAUAUGAGAUUUUUCAUAUUAUUUUUUAUUCUCAGUGAUGUUGGGAUUUAUAAUCAGAAGGCCAUGUGUAUG [Ex FMN B 11] | 88.4 |
| AGUGUUGUAUGGCGGUUUGUCACUUAGGAUCAGGAUAUAUAAACAAAUAGAAGGGAUGGCGGAGUGAUGUUCCGCCGGCCGCCAU [FMN A Exl V7] | 132 |
| GGAUAGGACAGAGGAUAUCUCUGAGGCAAGAAAACUUGUCUCUAAAGAGAUGACUCAGUGAUGUUGGGAGAAGGCUGUCCUAUCG [FmnBX 10 - #SwitchBubble #StaticStem] | 202 |
| GCUGUCCAGUUCGAUACCAGAGUUAUCGCACUGUAGUGAUAAAGUGAUGUUUUAUCAGUCCUCCCUUGGCAGCGAUGCCCGGCUG [theeternabot_exclusion_KL_Theo_B_25] | 164 |
| UUGUAUAGUGGAAGGAGCGCGUGGGCGCAGUGAUGUUGCGCCCGACAUCACUUCAACUUAACGCAGGUAGGUCGCCAUUGUAAUG [Arginine B (Excl) V5] | 131 |
| CCGGCCCGGCCGGAUACCAGUGCGCCGCUGGGAACCGCGGGCCCAGAGUGAUGUUCGGGACACCCUUGGCAGCCGCCUGGGUCGC [#2 Same State - Theophylline B Attempt #24 (HarryS)] | 398 |
| AGCGUCUGAAGAGGAUAUGACCAGUGAUGUUGGUUACUACCUCAAAUUAGUGUCUCGUCAAAAUCGUCAGAAGGCUUCGACGAGC [#09 K4 FMN B Exclusion] | 122 |
| CGGAGUGAUGUUCCUUUUAUUAAUUAUUAACGAGGACCGGUACGGCCGCCACUCGAUUUAGCUUUUAUUUAAUGCUUGGAUGUUU [JR_SSTryptoA_Sub003] | 132 |
| CGCGCCCAGCCGGAUACCAGUGACCCGCUGGGAACCGCGGGCCCAGAGUGAUGUUCGGGACACCCUUGGCAGCCGCCUGGGCGAC [#2 Same State - Theophylline B Attempt #8 (HarryS)] | 993 |
| CAUUAAACUCAAACUAUUGGGUUUACGUUCCGAGGACCGGUACGGCCGCCACUCGGUCGAUGCUAUACCAUACGAGUGAUGUUCG [theeternabot_sameState_KL_Trp_A_1] | 465 |

same assay, conditions: Eterna round: R107; input ligand: arginine 13.2 mM

| Sequence | apparent KD of K4 kissing-loop reporter [nM] |
| --- | --- |
| UGGCGGACGAUCCGGAGUGAUGUUCCGGAUACCAGCAGAAGAGCCUGCCCUUGGCAGCCGUACGACGCUGGGAGAGUCCGGCGUC [Soteina] | 90.3 |
| UGACAUUGCUCAGAUACCAGACAUGAGCAUCAGCCAUGUACCAAGAAAGUACAAUAAAAUGUCCCUUGGCAGCUGAGCAAUGUCU [TheoBX 8] | 25.6 |
| AAUUUUAAUCAUAAAUAAUAAAUAAAUGAUACCAGUAUUUUUUUUUACCCUUGGCAGCGUAUAUAAGGGCAGUGAUGUUGUCAGA [whbob_SS_Theo_A_w60] | 98.8 |
| UGAUACCAGACUGAUACCAGCCAGUGAUGUUGGCUAAGCCAAAUAGGUGUCAAAGACACCGGCCCUUGGCAGCAGUCUGGUAUCU [TheoBX 2 #SwitchBubble #StaticStem] | 113 |
| GGAGUUACCUGGGAUACCAGUCGGAGACCCAGAGCUCGGAGUGAUGUUCUGGGAUGUUUCGGCCCUUGGCAGCUCUGGGUCUCCC [#2 Exclusion - Theophylline B Attempt #8 (HarryS)] | 615 |
| GAAUGAUAGUAAGGAUAUAGAUAAUCCUUAUAUAUAUCGAGUGAUGUUCGAUGUGGCAAGAUACAUCUAGAAGGUACUGUAAGGU [Same State FMN B GF 16] | 321 |
| CUCCUUGGCUAAGGAUAUCGUAGUGAUGUUAUGGUCUUUGCUAAGACUUCUGAUAUUGAAUUCCGACGAGAAGGUAGAAGGACGG [theeternabot_exclusion_KL_FMN_B_18] | 690 |
| UCUGUUGUAUAUGAUACCAGCAGUGAGAGAUGAGAAGUAUAGUGAUGUUAUAUGAGAGAAUGCCCUUGGCAGCGUGUGCGUGUGG [SSTheophylB.aC] | 98.3 |
| CGCCGUAAGGCGAGCGCUCCCACUCCGGAAGGAGCGCCCGAAAGGGCAGGUAGGUCGCCGGAGUGAUGUUCCGGUGGAGGGCUCG [#2 Exclusion - Arginine A Attempt #28 (Inspired by Omei)] | 261 |
| UCACUCAUGUGAAGGAGCGUGAGAAGACAUGAGUGAUGUUCAUGUCUAGACCAGCGUCUCUCACAGGUAGGUCGCACAUGAAAGG [Arg B SS t10] | 105 |
